Experimental data reported in paper PMC4240654, “A Single Chain Variant of Factor VIII Fc Fusion Protein Retains Normal In Vivo Efficacy but Exhibits Altered In Vitro Activity” (PLoS ONE, 2014).

Key:
[1] = molecular target: T1, human plasma-derived von Willebrand factor (VWF) (human, UniProt P04275 764-2813); test: SPR; Biacore T100, 25°C; human plasma-derived VWF immobilised on flow cells, FVIII variants infused to normalized capture levels, then human α-thrombin at different concentrations applied and rates of release determined; details: both partners purified
T1 construct: von Willebrand factor, human, derived from plasma; Plasma VWF is a multimer; also called human VWF; source: human plasma-derived

[2] = molecular target: T1, human plasma-derived von Willebrand …; test: SPR; Biacore T100, 37°C; human plasma-derived VWF immobilised on flow cells, FVIII variants infused to normalized capture levels, then human α-thrombin at different concentrations applied and rates of release determined; details: both partners purified

B1: BDD rFVIII (recombinant B-domain-deleted factor VIII, ReFacto / Xyntha) (natural protein)
chain 1: ATRRYYLGAVELSWDYMQSDLGELPVDARFPPRVPKSFPFNTSVVYKKTLFVEFTDHLFNIAKPRPPWMGLLGPTIQAEVYDTVVITLKNMASHPVSLHAVGVSYWKASEGAEYDDQTSQREKEDDKVFPGGSHTYVWQVLKENGPMASDPLCLTYSYLSHVDLVKDLNSGLIGALLVCREGSLAKEKTQTLHKFILLFAVFDEGKSWHSETKNSLMQDRDAASARAWPKMHTVNGYVNRSLPGLIGCHRKSVYWHVIGMGTTPEVHSIFLEGHTFLVRNHRQASLEISPITFLTAQTLLMDLGQFLLFCHISSHQHDGMEAYVKVDSCPEEPQLRMKNNEEAEDYDDDLTDSEMDVVRFDDDNSPSFIQIRSVAKKHPKTWVHYIAAEEEDWDYAPLVLAPDDRSYKSQYLNNGPQRIGRKYKKVRFMAYTDETFKTREAIQHESGILGPLLYGEVGDTLLIIFKNQASRPYNIYPHGITDVRPLYSRRLPKGVKHLKDFPILPGEIFKYKWTVTVEDGPTKSDPRCLTRYYSSFVNMERDLASGLIGPLLICYKESVDQRGNQIMSDKRNVILFSVFDENRSWYLTENIQRFLPNPAGVQLEDPEFQASNIMHSINGYVFDSLQLSVCLHEVAYWYILSIGAQTDFLSVFFSGYTFKHKMVYEDTLTLFPFSGETVFMSMENPGLWILGCHNSDFRNRGMTALLKVSSCDKNTGDYYEDSYEDISAYLLSKNNAIEPRSFSQNPPVLKRHQR
chain 2: EITRTTLQSDQEEIDYDDTISVEMKKEDFDIYDEDENQSPRSFQKKTRHYFIAAVERLWDYGMSSSPHVLRNRAQSGSVPQFKKVVFQEFTDGSFTQPLYRGELNEHLGLLGPYIRAEVEDNIMVTFRNQASRPYSFYSSLISYEEDQRQGAEPRKNFVKPNETKTYFWKVQHHMAPTKDEFDCKAWAYFSDVDLEKDVHSGLIGPLLVCHTNTLNPAHGRQVTVQEFALFFTIFDETKSWYFTENMERNCRAPCNIQMEDPTFKENYRFHAINGYIMDTLPGLVMAQDQRIRWYLLSMGSNENIHSIHFSGHVFTVRKKEEYKMALYNLYPGVFETVEMLPSKAGIWRVECLIGEHLHAGMSTLFLVYSNKCQTPLGMASGHIRDFQITASGQYGQWAPKLARLHYSGSINAWSTKEPFSWIKVDLLAPMIIHGIKTQGARQKFSSLYISQFIIMYSLDGKKWQTYRGNSTGTLMVFFGNVDSSGIKHNIFNPPIIARYIRLHPTHYSIRSTLRMELMGCDLNSCSMPLGMESKAISDAQITASSYFTNMFATWSPSKARLHLQGRSNAWRPQVNNPKEWLQVDFQKTMKVTGVTTQGVKSLLTSMYVKEFLISSSQDGHQWTLFFQNGKVKVFQGNQDSFTPVVNSLDPPLLTRYLRIHPQSWVHQIALRMEVLGCEAQDLY
modifications: ReFacto/Xyntha (moroctocog alfa): S743-Q1638 fusion by convention, the same junction as printed for rFVIIIFc; mainly two-chain after cleavage at R1648, with a minor single-chain fraction …
thrombin EC50 for release from VWF [1]: 3.3 ± 0.3 U/mL | thrombin EC50 for release from VWF [2]: 4 ± 0.2 U/mL
